Experiment: soluble on expression in E. coli; label from the status in PepcDB or PDB records

Sequence	soluble on expression in E. coli
MKLSPSMLDKLLRLGYSKLFADRYFQLWGERAIRIAEAMEKPLPRCFRVNTLKISVQDLVKRLNKKGFQFKRVPWAKEGFCLTREPFSITSTPEFLTGLIYIQEASSMYPPVALDPKPGEIVADMAAAPGGKTSYLAQLMRNDGVIYAFDVDENRLRETRLNLSRLGVLNVILFHSSSLHIGELNVEFDKILLDAPCTGSGTIHKNPERKWNRTMDDIKFCQGLQMRLLEKGLEVLKPGGILVYSTCSLEPEENEFVIQWALDNFDVELLPLKYGEPALTNPFGIELSEEIKNARRLYPDVHETSGFFIAKIRKL	soluble
MAHHHHHHMKFDKRECINVDLTSQISEQDVTQSVSKGEKKRDSLPQNEKESELSAEKESQMSQPKADEANLKRENSPLSEPNRKGTSVNKKNDCETSHTDKETNLKEYYKDLPTVIIVIGMAGSGKTTYVGSLYNYLKVEKKKKVYTMNLDPAVKYVQYPVNIDIRDSIKYHEIMKEYKLGPNGAIMTCLNLFATRFDKVIEILEKRKNKLHYIIVDTPGQIEVFNWSASGNIILETLSVSFPVVINYIIDTVRCERPITFMSNMLYACSVLYKARLPFLACFNKVDIIKHDKCIEWMKDYDSFNDDVIHDESYMASFSRSCALMINEFYEGIKTVGISSKTNEGFNSILKNLELLKEEYINEYVTSIEKQMKRIKRKKEKDIKLKMENLLIEKQKDLSSSKNKSVN	not soluble
MGSDKIHHHHHHAMDNYDYETVVTLIEPDCQDSLLLITKAQALKAMNRYPEAIGVLNSLILKDSTNTKVLIDLAECYKLTGNSRRAANCYQKAMNLQPENKFFRLQFIRSLLASEDYEEARTACHGWLERDSLSATGYKYLGQAYEGLQDAASAFLSYNIAYRRDSLDAQTVARIAGIFNNNQQFKDAVDVTEVYRLSDTTNIDVNRQNAKAYCMLKEYGTAVKRYESLKELGDRSFLTLYYLGVSHYGDNWFYGAYDNLKEAYQKNPMDVNVLYYLAKASARTSWKKEGVEYMEEAFRIAVPSDSMMVRLYDGLVECYDYAGDTKKEVEALEKLYIYTKKNSILYKIACLYDWKEDEKNAIRYYRKYMATVSEDQRYALDEDGNPVEDRITLYQQAWKRIKKIKEEGFFRGDIPTKSFPVEKKDTLALRHAK	not soluble
MTAPTAHDYDVVIIGGGPAGLTAAIYTGRAQLSTLILEKGMPGGQIAWSEEVENFPGFPEPIAGMELAQRMHQQAEKFGAKVEMDEVQGVQHDATSHPYPFTVRGYNGEYRAKAVILATGADPRKLGIPGEDNFWGKGVSTCATCDGFFYKGKKVVVIGGGDAAVEEGMFLTKFADEVTVIHRRDTLRANKVAQARAFANPKMKFIWDTAVEEIQGADSVSGVKLRNLKTGEVSELATDGVFIFIGHVPNTAFVKDTVSLRDDGYVDVRDEIYTNIPMLFAAGDVSDYIYRQLATSVGAGTRAAMMTERQLAALEVEGEEVTAAD	soluble
MSLRPPQTLSRGWGDDITWVQTYEEGLFYAQKSKKPLMVIHHLEDCQYSQALKKVFAQNEEIQEMAQNKFIMLNLMHETTDKNLSPDGQYVPRIMFVDPSLTVRADIAGRYSNRLYTYEPRDLPLLIENMKKALRLIQSELEGHHHHHH	soluble
MTESLNRDLPVLLATLNKLSSDADRILLENREDIRKIAYNLSIVMEKVKDDLPVLVENLKELSVNLNTVVKNNKVNINKTLVSLRKTTENLSRASYKLDKILADLESGKGTLGKLLKDEELYENVNQGVKALGKAGKVVEKTQLYIGLRGELYREGDSKGILSVRLVPDRDKYYLLEVVGDSRGRVYREEYLDGREVVKKEFKPEFTLQYARNFSLFGRTLTLRGGLKENTGGVGADYYIYRDKYLFADLWDFGRKDRPQDKDLKPNLQIGIHWYINRNLYVRFGGDDLLNSKLRGFFGGVGLEFVDEDLKYLLGGIGVPIR	not soluble
QNYSIERDVRLAPGEHFQIEGYDFYFSGLRDKDGPNYDGYIADFEITHDGKYINTLHAEKRFYRTAKSMMTEAAIDRGITRDLYIAMGERLDDNRSWAVRIYYKPFVR	not soluble
MTKYIFVTGGVVSSLGKGITAASLGRLLKNRGLNVTIQKFDPYINVDPGTMSPYQHGEVFVTDDGAETDLDLGHYERFIDINLNKYSNVTTGKIYSAVIRKERRGDYLGGTVQVIPHITNEIKERVFRAGRETNADVVITEIGGTVGDIESLPFLEAIRQIKSDVGRENVMYIHCTLVPYIKAAGEMKTKPTQHSVKELRSLGIQPNVIVVRTEMPMPQEMKEKIALFCDIDPKAVIEARDADTLYAVPLMLQEQKLDQIVCEHLRLNCREADMTEWKALVEKVRNLSKTTKIALVGKYVELPDAYISVVEALRHAGYAFDTDIDIQWINAEHVTRDNVADLLKDADGILVPGGFGDRGVEGKIEAIRYAREQRVPFLGICLGMQLASIEFARHVVGLSGAHSSEFDPNTPHPIIDLLPEQKDVEDLGGTLRLGLYPCKLQEGTLAYAAYGDEVIYERHRHRYEFNNQYRSIMEEHGFVFSGTSPDGRLVEVIELKDHPWFVAAQFHPEFTSRPTRPQPLFREFVRASLKE	not soluble
MSLSATSNSNWDRRSVLRAAAGLAALGPLAACGSNTGRSGGGSSGESLVQYFHAYGEAGTEQAIRRYAKAYDKAAVTTQWITGTNFESKLFSALLTDNAPDVFEFHPQLQMIKSGQVAALDDIIDPVKDDFNPADITSHTVDGKVYGVRMIDDPQFFFYRKSLLEKAGTGVPQTLDELAEAAAKLTTDKVKGLFLGNNMVAPNYALVWAAGADQLNAKNEIAYHTDEVAAALKVYRKMFTSGHLLLDAPADYWDPSALVQGLTAIQWCGMWAMPVMQQALGDDLGIFPFPSAASGAKPAVYNGGWSMFVNAKGKNVDLAKEYVKWLWIDQKKYQEDWALSYGFHIPPRTSTAESATKLKSGLPAEGVKLFTDYGRFDNVSWTQAMISALEGVIADAVRKGKDPEAALDTADKKVNRELKNLFGEGHHHHHH	soluble
MSLHDKQELSSKSNLNNQKGYLDNEGANSNYESKKQSILSELNQLLKQTTNSLKEAKNTTDNLNASNEANKVVEAVINAVNLISSAADQVKSATKNMHDLAQMAEIDLEKIKNSSDKAIFASNLAKEAYSLTKAAEQNMQKLYKEQQKISESESESDYSDSAEIKQAKEAVEIAWKATVEAKDKLIDVENTVKETLDKIKTETTNNTKLADIKEAAELVLQIAKNAKEIVQEVVALLNTEGHHHHHH	soluble
HGNQLTAYTLRLGDNCLVLSQRLGEWCGHAPELEIDLALANIGLDLLGQARNFLSYAAELAGEGDEDTLAFTRDERQFSNLLLVEQPNGNFADTIARQYFIDAWHVALFTRLMESRDPQLAAISAKAIKEARYHLRFSRGWLERLGNGTDVSGQKMQQAINKLWRFTAELFDADEIDIALSEEGIAVDPRTLRAAWEAEVFAGINEATLNVPQEQAYRTGGKKGLHTEHLGPMLAEMQYLQRVLPGQQW	soluble
METETATTPTGNTEPTAAASAEPPKSDKVTVRLRNIADAPVLKNKKMVVNPTDTVASFILKLRKLLNIQANNSLFLYIDNTFAPSPDTTFETLSRCYSVKITDKEILELQYSITPAYG	soluble
KTISLYKDSIPKEKTEGTDAILISDNQLINQLQTAAKTSSSQNKANTAAITFKQSNKSETDQSTTSQVIGYTTTASLKADKKNIFDVKKLNNEKSERKIIVGATVETLNQANTLQANEAIIKPAPGKYQSTDSHKVMITQGPNIVGIHANEKEDKETQKFINW	soluble
MAHHHHHHMITSINVIHELLTTIYCRIFSRKRKDIYKYDVLLYLQDYYYFDVIKRVSDDIKELDDDSITIEINSNEYEVILNGDKSSSFFNHTFENFCIHRGYDIIKDKTYSNEYEKRIDFLHELLCDLLCLLLNENNEKKGKEKEKEEKKNNMNKNMNYNKERVINKMYHNNNHLFKKFWENIQDILKEINILNENKYVEDINEENIKDILYIQKEKLIKNEDIIIKKNVDINKITLLNNLIEKYNNEYKYRFYYIFLNNYLTIQTMFTSNMIYLYSYEIQNIIHKIIKMKINLYQPLTIYDVLAFQYDQIMFHKSSYMNLISPVKKIKILNNIVERGGDPDEFSKKVIIKDVINANISLKAKFNKARTQNDNNWGNNKYKVRNYYDNNRR	soluble
MNEETHNKKWQITHRKIQEIVFHLLKEHPIKEISVSQVCKKANINRSTFYDHFEDIYELFDVTQLNKRKELFESFIKQSNPRDKFNFYDLQSLTQFLTFIKENGWIYSIVLKSRQDFPITEGFEELYKVLINPLKKKRPELTDNELAYYFIAFQSSFTFILKRWSDNDYQEKEKEIAAILINSMPLILKNK	soluble

Reference: the DeepSol protein solubility set
